Biological target: RABV-G domain III (Rabies virus, strain CVS-11 (GenBank …, stabilised))
Assay: crystal structure

B1: CR57 diabody (other)
VH: EVQLVQSGAEVKKPGSSVKVSCKASGGTFNRYTVNWVRQAPGQGLEWMGGIIPIFGTANYAQRFQGRLTITADESTSTAYMELSSLRSDDTAVYFCARENLDNSGTYYYFSGWFDPWGQGTLVTVSS
VL: QSALTQPRSVSGSPGQSVTISCTGTSSDIGGYNFVSWYQQHPGKAPKLMIYDATKRPSGVPDRFSGSKSGNTASLTISGLQAEDEADYYCCSYAGDYTPGVVFGGGTKLTVL
Question: For B1, which “stoichiometry N” value is on record?
Answer: 2 domain III per diabody

— publication doi:10.1101/2023.10.30.564668 (bioRxiv, 2023)
